Measured values published in patent US7932226B2, “NFκB transcriptional activity inhibitory agent and anti-inflammatory agent and a steroid action enhancing agent” (St. Marianna University School of Medicine, priority 2004, dated 2011).

How the values were obtained:
[1] = tested on: transcriptional activity of NFκB; test: NFκB-dependent luciferase assay in transfected COS-7 cells, TNFα-induced; assay type: cell-based
Experimental: COS-7 cells were plated into a 6-well plate (Falcon, catalog number: 35-3046) at 3.5 to 3.8×10^5 cells per well and cultured in a DMEM supplemented with 10% 56° C.-inactivated FBS (fetal bovine serum; HyClone, catalog number: SH30070.03) under the conditions of 5% CO2 and 37° C. After 18 hours, the medium was replaced with a DMEM containing charcoal-dextran treated (C/D treatment) FBS (C/D-FBS, HyClone, catalog number: SH30068.03). Each of the plasmids constructed in Example 2 was mixed as shown in Table 1 and each sample was prepared to be 4.12 μg and each was mixed with TransFast (product name) reagent (12.3 μl) and the mixture was incubated for 10 to 15 minutes. After the medium in each well was replaced, each plasmid DNA was added to the respective wells according to the amount shown in Table 1 and incubation was carried out for 1 hour, thus each DNA was transfected into COS-7 cells. The transfection efficiency was 34%. To the cells into which DNA was transfected as described above, after 24 hours, an inflammatory cytokine (TNFα, Sigma) at a final concentration of 1 ng/ml and a steroid agent (triamcinolone acetonide: TA, Sigma) at a final concentration of 120 nM were added. Further, after an additional 24 hours, luciferase activities in the cells were assayed using Dual Luciferase Assay System (Promega) by a luminometer (Turner BioSystems TD-20/20, Promega). The results are shown in FIG. 1, In FIG. 1, the luciferase activities indicating the transcriptional activity of NFκB is indicated on the vertical axis. The closed circles show the case where only TNFα was added, the closed triangles show the case where both TNFα and TA were added, the open triangles show the case where only TA was added and the open circles show the case where neither of TNFα nor TA was added, respectively.

[2] = tested on: transcriptional activity of NFκB; test: NFκB luciferase assay in the presence of coactivator p300; assay type: cell-based
Experimental: Then, in order to confirm the action site of MTI-II, the effect of MTI-II was investigated when a coactivator p300, which acts on the transcriptional activity of NFκB, was expressed.
A coactivator p300 expression plasmid (pCMVβ-p300) was purchased from Upstate. DNA transfection was carried out in the same manner as in Example 3 except that the amount of DNA was each 2.0 μg and the amount of pTri-NC or pTri-MTI was 1.0 μg. The NFκB transcriptional activity assay was carried out in the same manner as in Example 4.

[3] = MTI-II peptide administration experiment (behaviour and autopsy observation); assay type: in vivo; details: 10 mg/kg intraperitoneal, ICR mice
Experimental: MTI-II of SEQ ID NO: 1 (Gene Bank Accession No. M24398) was purified in accordance with the purification method described in the document (Eur. J. Biochem., (2000), 267, 155-162). It was dissolved in physiological saline at a concentration of 1.0 mg/ml and intraperitoneally administered to 5 male (an average body weight of 28.4 g) and 5 female (an average body weight of 25.0 g) ICR mice at 5 weeks of age at 10 mg/kg of body weight. As a control, physiological saline was administered to 2 male and 2 female ICR mice of the same age. […] At 24 hours after the administration, they were sacrificed and autopsy was carried out and the swelling of the liver, kidney, spleen, small intestine, large intestine and thymus and the swelling of the blood vessels in the abdominal cavity were observed by the naked eye. As a result, behavioral anomaly and the swelling of the liver, kidney, spleen, small intestine, large intestine, thymus and blood vessels were not observed in all specimens.

[4] = tested on: transcriptional activity of NFκB; test: NFκB luciferase assay in HeLa cells with added His-tag-TAT-MTI-II protein; assay type: cell-based; details: protein 30-300 μg per well added 6 hours before TNFα 1 ng/ml
Experimental: HeLa cells were plated into a 6-well plate at 2.0×10^5 cells per well and cultured in a DMEM (HyClone) supplemented with 10% FBS (fetal bovine serum) for 18 hours. Thereafter, the medium was replaced with a medium containing charcoal-dextran treated (C/D treatment) FBS (C/D-FBS). Further, after an additional 24 hours, each plasmid DNA blended in accordance with the amount shown in the following Table 2 was added to the respective wells, and these HeLa cells were transfected with NFκB-Luc gene.
At 24 hours after the transfection, to the HeLa cells in each well, the His-tag-TAT-MTI-II fusion protein prepared in Example 7 was added according to the amount shown in Table 3, and 6 hours thereafter, an inflammatory cytokine (TNFα, Sigma) was further added thereto in an amount to give a concentration of 1 ng/ml. After 24 hours, in the same manner as in Example 4, luciferase activities in the cells were assayed using Dual Luciferase Assay System (Promega).

[5] = OVA-sensitized rabbit knee joint inflammation model; assay type: in vivo, New Zealand White rabbits; details: rabbits, 0.4 mg/ml in PBS into the right knee joint, 10 administrations in 14 days
Experimental: For primary sensitization, ovalbumin (OVA)+Freund's complete adjuvant (FCA) was intradermally injected once in the dorsal area of three New Zealand White rabbits. After 2 weeks, for secondary sensitization, OVA+FCA was intradermally administered once in the dorsal area. Further, for challenge administration, at 5 days after the secondary sensitization, OVA was administered once into the right knee joint. A His-tag-TAT-MTI-II solution (at 0.4 mg/ml in PBS solution) was administered into the right knee joint every other day starting from one day before the challenge administration of OVA. Incidentally, during 5 days from the next day of the challenge administration of OVA, the His-tag-TAT-MTI-II solution was administered once daily. The administration period was 14 days (number of administration: 10 times in total), and in a control group, PBS was administered into the right knee joint. An anti-inflammatory action was examined based on the blood sedimentation rate measurement and the pathological specimens of both knee joints.

TNFα [reference compound]
luciferase activity (transcriptional activity of NFκB) versus no TNFα ([1]; TNFα 1 ng/ml only, MTI-II 0 μg): about 10 times

B1: MTI-II: 102 amino acid polypeptide (SEQ ID NO: 2), same sequence as parathymosin; encoded by SEQ ID NO: 1 (protein, listed as Homo sapiens)
chain: MSEKSVEAAAELSAKDLKEKKDKVEEKAGRKERKKEVVEEEENGAEEEEEETAEDGEDDDEGDEEDEEEEEEEDEGPVRKRTAEEEDEADPKRQKTENGASA
transcriptional activity of NFκB ([1]; TNFα 1 ng/ml, MTI-II expressed (0-3.0 μg vector)): inhibited depending on the amount of MTI-II | NFκB transcriptional activity ([1]; TNFα, simultaneous use of MTI-II and the steroid agent (TA 120 nM)): inhibited further more | transcriptional activity of NFκB compared with the case where MTI-II was not expressed ([2]; MTI-II expressed together with p300, TNFα (pTri-MTI 1.0 μg)): inhibited to about half or more | transcriptional activity of NFκB compared with the case where MTI-II was not expressed ([2]; MTI-II expressed together with p300, TNFα, steroid agent further added): inhibited to about half or more | transcriptional activity of NFκB compared with the absence of the coactivator ([2]; MTI-II with p300, TNFα, used together with the steroid agent): inhibited to about half | swelling of the liver, kidney, spleen, small intestine, large intestine, thymus and blood vessels ([3]; autopsy at 24 hours, naked eye): not observed | behavioral anomaly ([3]; observed for 24 hours): not observed

B2: His-tag-TAT-MTI-II: His-tag-TAT-MTI-II fusion protein (SEQ ID NO: 11) expressed in E. coli (protein)
chain: MAHHHHHHSLVPRGSRRRQRRKKRGLQMSEKSVEAAAELSAKDLKEKKDKVEEKAGRKERKKEVVEEEENGAEEEEEETAEDGEDDDEGDEEDEEEEEEEDEGPVRKRTAEEEDEADPKRQKTENGASA
modifications: HisTag-TAT-MTI-II
transcriptional activity of NFκB [4]: inhibited depending on the amount of TAT-MTI-II | anti-inflammatory action (blood sedimentation rate, pathological specimens of knee joints) [5]: anti-inflammatory effect
